Assay results from patent US9976167B2, “Group of glycosyltransferases and use thereof” (Shanghai Institutes For Biological Sciences, Chinese …, priority 2012, dated 2018).

B1: gGT29-3: glycosyltransferase protein with 442 amino acids, SEQ ID NO.: 28 (protein)
chain: MDNQEGRISIALLPFLAHGHISPFFELAKQLAKRNCNVFLCSTPINLSSIKNKDSSASIKLVELHLPSSPDLPPHYHTTNGLPSHLMVPLINAFETAGPTFSEILKTLNPDLLIYDFNPSWAPEIASSHNIPAVYFLTTAAASSSIGLHAFKNPGEKYPFPDFYDNSNNTPEPPSADNMKLLHDFIACFERSCDIILIKSFIELEGKYIDLLSTLSDKTLVPVGPLVQDPMGHNEDPKTEQIINWLDKRAESTVVFVCFGSEYFLSNEELEEVAIGLEISMVNFIWAVRLIEGEKKGVLPEGFVQRVGDRGLVVEGWAPQARILGHSSTGGFVSHCGWSSIAESMKFGVPVIAMARHLDQPLNGKLAAEVGVGMEVVRDENGKYKREGIAEVIRKVVVEKSGEVMRRKARELSEKMKEKGEEEIDRAVEELVQICKKKKDAQ
modifications: Panax ginseng; gGT29-3
B2: gGT29-7: glycosyltransferase protein with 446 amino acids, SEQ ID NO.: 61 (protein)
chain: MDNQKGRISIALLPFLAHGHISPFFELAKQLAKRNCNVFLCSTPINLSSIKNRVSDKDSSASIKLVELHLPSSPDLPPHYHTTNGLPSHLMIPLRNAFDTAGPTFSEILKTLNPDLLIYDFNPSWAPEIASSHNIPAVCFIIGGAASSSMSLHSFKNPGEKYPFLDFDDNSNITPEPPSADNMKLLINFMTCFERSCDIILIKSFRELEGKYFDFFSTLSDKTLVPVGPLVQDPMGHNEDPKTEQFINWLDKRAESTVVFVCFGSECFLSNEELEEVAIGLEISMVNFIWAVRLIEGEKKGVLPEGFVQRVGDRGLVVEEWAPQARILGHSSTGGFVSHCGWNSITESMKFGVPVIAMARHFDQPLNGKLAAEVGVGMEVVRDENGKYKREGIAEVIRKVVVEKSGEVIRRKARELSEKMKEKGEQEIDRVVEELVQICKKKKDEQ
modifications: Panax ginseng; gGT29-7
B3: gGT29-4: glycosyltransferase protein with 446 amino acids, SEQ ID NO.: 55 (protein)
chain: MDNQKGRISIALLPFLAHGHISPFFELAKHLSKRNCNIFLCSTPINLSSIKNRISDKDSSASIKLVELHLPSSPDLPPHYHTTNGLPSHLMVPLRNAFETAAPTFSEILKTLNPDLLIYDFNPSWAPEIASSHNIPAVCFIIGGAASFSMSLHSFKNPGEKYPFLDFDDNSNITPEPPSADNMKLLLDFMTCFERSCDIILIKSFRELEGKYFDFYSTLSDKTLVPVGPLVQDPMGHNEDPKTEQFINWLDKRAESTVVFVCFGSEYFLSNEELEEVAIGLEISMVNFIWAVRLIEGEKKGVLPEGFVQRVGDRGLVVEGWAPQARILGHSSTGGFVSHCGWSSITESMKFGVPVIAMARHLDQPLNGKLAAEVGVGMEVVRDENGKYKREGIAEVIRKVVVEKSGEVMRRKARELSEKMKEKGEEEIDRAVEELVQICKKKKDEQ
modifications: Panax ginseng; gGT29-4
B4: gGT29-5: glycosyltransferase protein with 446 amino acids, SEQ ID NO.: 57 (protein)
chain: MDNQKGRISIVMLPFLAHGHISPFFELAKHLSKRNCNIFLCSTPINLSSIKNRISDKDSSASIKLVELHLPSSPDLPPHYHTTNGLPSHLMVPLRNAFETAAPTFSEILKTLNPDLLIYDFNPSWAPEIASSHNIPAVCFIIGGAASFSMSLHSFKNPGEKYPFLDFDDNSNITPEPPSADNMKLLLDFMTCFERSCDIILIKSFRELEGKYIDLLSTLSDKTLVPVGPLVQDPMGHNEDPKTEQIINWLDKRAESTVVFVCFGSEYFLSNEELEEVAIGLEISMVNFIWAVRLIEGEKKGVLPEGFVQRVGDRGLVVEGWAPQARILGHSSTGGFVSHCGWSSIAESMKFGVPVIAMARHLDQPLNGKLAAEVGVGMEVVRDENGKYKREGIAEVIRKVVVEKSGEVIRRKARELSEKMKEIGEQLIDRAVEELVQICKKKKDEQ
modifications: Panax ginseng; gGT29-5
B5: gGT29-6: glycosyltransferase protein with 446 amino acids, SEQ ID NO.: 59 (protein)
chain: MDNQKGRISIVMLPFLAHGHISPFFELAKHLSKRNCNIFLCSTPINLSSIKNRISDKDSSASIKLVELHLPSSPDLPPHYHTTNGLPSHLMVPLRNAFETAAPTFSEILKTLNPDLLIYDFNPSWAPEIASSHNIPAVYFLTTAAASSSIGLHAFKNPGEKYPFPDFYDNSNNTPEPPSADNMKLLHDFIACFERSCDIILIKSFIELEGKYIDLLSTLSDKTLVPVGPLVQDPMGHNEDPKTEQIINWLDKRAESTVVFVCFGSEYFLSNEELEEVAIGLEISMVNFIWAVRLIEGEKKGVLPEGFVQRVGDRGLVVEGWAPQARILGHSSTGGFVSHCGWSSIAESMKFGVPVIAMARHLDQPLNGKLAAEVGVGMEVVRDENGKYKREDIAGVIRKVVVEKSGEVIRRKARELSEKMKEIGEQLIDRAVEELVQICKKKKDEQ
modifications: Panax ginseng; gGT29-6

Assay: Glycosyltransfering reaction with crude enzyme, substrate Rh2
Assay type: biochemical
Details: crude enzyme: lysate supernatant of recombinant yeast; 35° C., 12 hrs; TLC
Experimental: (§1) The lysate supernatant of the recombinant yeasts expressing the empty vector was used as control.
(§2) The reaction was conducted under 35° C. for 12 hrs, then stopped by adding 100 μL of butanol. The product were extracted, dried in vacuum, and dissolved in methanol.
The reaction products were first detected by thin layer chromatography (TLC). […]
(§3) The lysate supernatant of the recombinant yeast expressing empty vectors was used as control. The reaction was conducted under 35° C. for 12 hrs, and then stopped by adding 100 μL of butanol. The product were extracted, dried in vacuum, and dissolved in methanol.
(§4) The glycosyltransfering reactions of ginsenosides Rh2 and F2 were catalyzed by using the lysate supernatant of the recombinant yeasts expressing 3GT1, 3GT2, 3GT3 and 3GT4 as crude enzymes. The 100 μL reaction system is shown as Table 3. The reaction was conducted under 35° C. for 12 hrs, and then stopped by adding 100 μL of butanol. The product were extracted, dried in vacuum, and dissolved in methanol.

Molecule | extension of C3 of Rh2 by one more glycosyl (product Rg3)
B1 | could be extended by one more glycosyl

Assay: Glycosyltransfering reaction with crude enzyme, substrate F2
Assay type: biochemical
Details: crude enzyme: lysate supernatant of recombinant yeast; 35° C., 12 hrs; TLC
Experimental: According to the method as in Example 4, the cell lysate of recombinant yeasts expressing gGT13 and gGT30 were used to catalyze PPD and PPT.
as §3, §4

extension of C3 of F2 by one more glycosyl (product Rd) | Molecule
could be extended by one more glycosyl | B1

Same assay, conditions: crude enzymes of Example 21 (E. coli expression products); 35° C., 12 hrs; TLC

extension of C3 glycosyl of F2 by one more glycosyl (product Rd) | Molecule
could be extended by one more glycosyl | B2
could be extended by one more glycosyl | B3
could be extended by one more glycosyl | B4
could be extended by one more glycosyl | B5

Assay: Glycosyltransfering activities on ginsengenins and saponins: glycosylation site and specificity (summary)
Assay type: biochemical
Details: Table 2, tetracyclic triterpenoid substrates
Experimental: More than 100 predicted cDNA sequences of glycosyltransferases were extracted from the published expression profile data of the Panax plant. 60 cDNAs with full length were cloned, expressed, and subjected to the analysis of glycosyltransfering reaction.
as §1, §2
as §4, with “ginsenosides” for “ginsenosides Rh2”, “ginsengenins” for “F2”, “lysis” for “lysate”, “enzymes. The lysis supernatant of recombinant E. coli expressing empty vectors was used as control.” for “enzymes.”, “hrs,” for “hrs, and”
as §3, §4

Molecule | glycosylation site: The first glycosyl at C-3
B2 | ✓
B3 | ✓
B4 | ✓
B1 | ✓
B5 | ✓

Assay: Glycosyltransfering reaction with crude enzyme, substrate Rh2
Assay type: biochemical
Details: crude enzymes of Example 21 (E. coli expression products); 35° C., 12 hrs; TLC

Molecule | extension of C3 glycosyl of Rh2 by one more glycosyl (product Rg3)
B2 | could not be catalyzed
B3 | could not be catalyzed
B4 | could not be catalyzed
B5 | could be extended by one more glycosyl
